Target: mesothelin-Fc fusion protein, immobilized on beads (UniProt Q13421)
Assay: cell-based or functional assay

UniProt Q13421, sequence (Q13421 other isoform, or with tags, fused parts or gaps limits assumed): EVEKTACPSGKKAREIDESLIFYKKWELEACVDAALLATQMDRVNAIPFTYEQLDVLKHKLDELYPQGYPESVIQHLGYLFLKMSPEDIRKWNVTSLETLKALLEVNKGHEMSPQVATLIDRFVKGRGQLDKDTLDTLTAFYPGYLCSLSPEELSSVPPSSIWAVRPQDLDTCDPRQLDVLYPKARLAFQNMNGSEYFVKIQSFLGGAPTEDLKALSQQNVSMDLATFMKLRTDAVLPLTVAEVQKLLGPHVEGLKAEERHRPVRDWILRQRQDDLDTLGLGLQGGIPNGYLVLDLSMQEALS

| Total Population Doublings (donor 1) (population doublings) | Total Population Doublings (donor 2) (population doublings) | Total Population Doublings (donor 3) (population doublings) | Substance |
| --- | --- | --- | --- |
| 8.8 | 8.4 | 8.4 | mesothelin-specific BBz CAR (SS1 scFv, 4-1BB and CD3z signaling domains) (receptor) |
| 5.8 | 6.9 | 6 | mesothelin-specific 28z CAR (SS1 scFv, CD28 and CD3z signaling domains) (receptor) |
